In patent publication US20220275047A1 (published 2022):

Biological target: T1, MUC5AC peptide on HLA-DPA1*01:03 / HLA-DPB1*04:01 (human)
T1 peptide: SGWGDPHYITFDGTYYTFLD
Test: multimer staining

B1: 05-MUC5AC4922-4941 (TCR, V domains shown)
Valpha: QTVTQSQPEMSVQEAETVTLSCTYDTSESNYYLFWYKQPPSRQMILVIRQEAYKQQNATENRFSVNFQKAAKSFSLKISDSQLGDTAMYFCAFMKRAETSGSRLTFGEGTQLTVNP
Vbeta: NAGVTQTPKFRVLKTGQSMTLLCAQDMNHEYMYWYRQDPGMGLRLIHYSVGEGTTAKGEVPDGYNVSRLKKQNFLLGLESAAPSQTSVYFCASSYWPTRETQYFGPGTRLLVL
binding result: recognises
